In IntAct's records for PubMed 21516122:

B1: Histone-lysine N-methyltransferase PRDM16 (Homo sapiens), Q9HAZ2-4 (parent)
chain: MCQISEQIYYKVIKDIEPGEELLVHVKEGVYPLGTVPPGLDEEPTFRCDECDELFQSKLDLRRHKKYTCGSVGAALYEGLAEELKPEGLGGGSGQAHECKDCERMFPNKYSLEQHMVIHTEEREYKCDQCPKAFNWKSNLIRHQMSHDSGKRFECENCVKVFTDPSNLQRHIRSQHVGARAHACPDCGKTFATSSGLKQHKHIHSTVKPFICEVCHKSYTQFSNLCRHKRMHADCRTQIKCKDCGQMFSTTSSLNKHRRFCEGKNHYTPGGIFAPGLPLTPSPMMDKAKPSPSLNHASLGFNEYFPSRPHPGSLPFSTAPPTFPALTPGFPGIFPPSLYPRPPLLPPTSLLKSPLNHTQDAKLPSPLGNPALPLVSAVSNSSQGTTAAAGPEEKFESRLEDSCVEKLKTRSSDMSDGSDFEDVNTTTGTDLDTTTGTGSDLDSDVDSDPDKDKGKGKSAEGQPKFGGGLAPPGAPNSVAEVPVFYSQHSFFPPPDEQLLTATGAAGDSIKAIASIAEKYFGPGFMGMQEKKLGSLPYHSAFPFQFLPNFPHSLYPFTDRALAHNLLVKAEPKSPRDALKVGGPSAECPFDLTTKPKDVKPILPMPKGPSAPASGEEQPLDLSIGSRARASQNGGGREPRKNHVYGERKLGAGEGLPQVCPARMPQQPPLHYAKPSPFFMDPIYSRVEKRKVTDPVGALKEKYLRPSPLLFHPQMSAIETMTEKLESFAAMKADSGSSLQPLPHHPFNFRSPPPTLSDPILRKGKERYTCRYCGKIFPRSANLTRHLRTHTGEQPYRCKYCDRSFSISSNLQRHVRNIHNKEKPFKCHLCNRCFGQQTNLDRHLKKHEHENAPVSQHPGVLTNHLGTSASSPTSESDNHALLDEKEDSYFSEIRNFIANSEMNQASTRTEKRADMQIVDGSAQCPGLASEKQEDVEEEDDDDLEEDDEDSLAGKSQDDTVSPAPEPQAAYEDEEDEEPAASLAVGFDHTRRCAEDHEGGLLALEPMPTFGKGLDLRRAAEEAFEVKDVLNSTLDSEALKHTLCRQAKNQAYAMMLSLSEDTPLHTPSQGSLDAWLKVTGATSESGAFHPINHL

Legend:
[1] = variants of: B1; settings: with ctbp2_mouse Ctbp2, P56546
[2] = variants of: B1; settings: with ctbp2_mouse Ctbp2, P56546; remark: listed apart in the source
[3] = variants of: B1; settings: with hdac2_chick HDAC2, P56519
Chain of hdac2_chick HDAC2, P56519 (P56519 whole entry): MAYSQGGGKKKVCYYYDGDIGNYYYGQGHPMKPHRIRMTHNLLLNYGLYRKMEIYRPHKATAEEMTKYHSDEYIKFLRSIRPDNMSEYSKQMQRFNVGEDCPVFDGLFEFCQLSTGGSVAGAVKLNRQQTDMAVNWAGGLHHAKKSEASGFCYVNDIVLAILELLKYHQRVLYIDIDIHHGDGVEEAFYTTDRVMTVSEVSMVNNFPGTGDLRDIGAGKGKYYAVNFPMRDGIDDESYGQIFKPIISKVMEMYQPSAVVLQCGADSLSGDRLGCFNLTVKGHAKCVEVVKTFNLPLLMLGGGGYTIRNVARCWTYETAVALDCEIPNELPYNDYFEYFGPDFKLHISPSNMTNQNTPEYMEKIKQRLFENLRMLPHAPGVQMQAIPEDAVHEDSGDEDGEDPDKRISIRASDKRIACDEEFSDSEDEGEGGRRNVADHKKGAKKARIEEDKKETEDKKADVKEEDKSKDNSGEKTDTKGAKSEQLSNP

Chain of ctbp2_mouse Ctbp2, P56546 (P56546 whole entry): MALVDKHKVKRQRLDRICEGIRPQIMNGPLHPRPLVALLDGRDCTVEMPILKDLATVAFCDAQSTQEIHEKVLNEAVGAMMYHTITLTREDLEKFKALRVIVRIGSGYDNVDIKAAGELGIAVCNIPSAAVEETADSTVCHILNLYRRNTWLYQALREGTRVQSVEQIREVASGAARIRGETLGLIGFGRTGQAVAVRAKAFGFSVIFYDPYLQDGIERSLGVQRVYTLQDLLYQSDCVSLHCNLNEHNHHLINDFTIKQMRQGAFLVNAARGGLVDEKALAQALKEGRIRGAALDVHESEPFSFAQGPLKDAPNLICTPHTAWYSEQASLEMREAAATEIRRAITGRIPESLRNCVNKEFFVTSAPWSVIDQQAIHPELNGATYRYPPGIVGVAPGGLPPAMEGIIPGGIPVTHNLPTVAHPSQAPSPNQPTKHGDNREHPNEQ

effect of a mutation on the interaction [1] | effect of a mutation on the interaction [2] | effect of a mutation on the interaction [3] | Variant
disrupting interaction | disrupting interaction | decreasing interaction | D590A;L591S;D620A;L621S
 |  | decreasing interaction | K568R
 |  | decreasing interaction | K568R;D590A;L591S;L619S;D620A
